Reference: patent publication US20150203579A1 (Regeneron, published 2015)

T1: recombinant cynomolgus monkey PD-1 expressed with a C-terminal myc-myc-hexahistidine tag (cynomolgus monkey (Macaca fascicularis))
T1 construct: monomeric; also called MfPD-1-MMH
T1 chain: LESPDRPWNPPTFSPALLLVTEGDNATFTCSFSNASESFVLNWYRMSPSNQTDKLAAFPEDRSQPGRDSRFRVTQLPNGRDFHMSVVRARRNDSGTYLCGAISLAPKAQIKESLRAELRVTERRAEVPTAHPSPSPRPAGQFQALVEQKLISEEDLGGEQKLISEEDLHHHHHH

T2: monkey PD-1 with mFc (monkey)
T2 construct: also called monkey PD-1-mFc; monkey PD-1 dimer
T2 chain: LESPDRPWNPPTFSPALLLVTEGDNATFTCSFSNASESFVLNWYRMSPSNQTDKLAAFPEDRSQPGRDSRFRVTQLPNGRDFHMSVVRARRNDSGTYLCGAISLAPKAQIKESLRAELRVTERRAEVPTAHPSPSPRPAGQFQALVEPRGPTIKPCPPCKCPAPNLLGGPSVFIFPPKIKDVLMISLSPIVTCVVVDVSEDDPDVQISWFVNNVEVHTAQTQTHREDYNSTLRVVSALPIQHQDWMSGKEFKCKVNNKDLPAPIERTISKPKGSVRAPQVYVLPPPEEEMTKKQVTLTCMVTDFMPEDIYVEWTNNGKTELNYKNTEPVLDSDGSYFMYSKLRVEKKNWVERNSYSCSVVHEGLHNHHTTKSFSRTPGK

B1: H2aM7794N (antibody, V domains shown)
VH: QLQLQESGPDLVKPSDTLSLTCTVSDDSISSTTYYWAWIRQPPGKGLEWIGSMSYNGNNYYNPSLKSRVAISAGTSQKQFSLKLTSVTAADTAVYHCARHLGYNGNWYPFDFWGQGILVTVSS
VL: not shown
notes: human variable regions, mouse IgG2a Fc; also called H2M7794N
B2: H4xH9120P2 (antibody, V domains shown)
VH: QVQLVQSGAEVKRPGASVKVSCKASGYTFTSFYMYWVRQAPGQGLEWMGIINPSDGSTSNAQKFQGRVTMTRDTSTSTVYMELSSLRSEDTAVYYCARRVAGDIFDIWGQGTMVTVSS
VL: not shown
notes: human IgG4 Fc with 2 or more amino acid changes (US20100331527)
B3: H4xH9135P2 (antibody, V domains shown)
VH: EVQLVESGGSVVRPGGSLRLSCVVSGFTFEDYGLSWVRQIPGKGLEWVSGISWTGGNTGYADSVKGRFTISRDNAKNSLYLQMNSLRAEDTALYHCTRDRQWLMQWYFDYWGQGTLVTVSS
VL: not shown
notes: as for B2
B4: H4H9019P (antibody, V domains shown)
VH: EVQLVESGGGVVRPGGSLRLSCAASGFTFDDYGMSWVRQVPGKGLEWVSGISWNDGKTVYAESVKGRFIISRDNAKNSLYLEMNSLRAEDTALYYCARDWQYLIERYFDYWGQGTLVTVSS
VL: not shown
notes: fully human; H4H prefix (human IgG4 Fc)
B5: H4H7798N (antibody, human IgG4 S228P, kappa, V domains shown)
VH: EVQLLESGGVLVQPGGSLRLSCAASGFTFSNFGMTWVRQAPGKGLEWVSGISGGGRDTYFADSVKGRFTISRDNSKNTLYLQMNSLKGEDTAVYYCVKWGNIYFDYWGQGTLVTVSS
VL: DIQMTQSPSSLSASVGDSITITCRASLSINTFLNWYQQKPGKAPNLLIYAASSLHGGVPSRFSGSGSGTDFTLTIRTLQPEDFATYYCQQSSNTPFTFGPGTVVDFRR
B6: H4H7795N2 (antibody, human IgG4 S228P, kappa, V domains shown)
VH: EVQVVESGGGLVEPGRSLRLSCKASGFTFDDYAMHWVRQTPGKALEWVSGISWSGNNIGYADSVKGRFTISKDDAKNSLYLQMNSLRPEDTALYYCTKDISITGTLDAFDVWGQGTMVTVSS
VL: DIQMTQSPISVSASVGDRVTITCRASQGISNWLAWYQQKPGIAPKLLIYSASSLQSGVPSRFRGSGSGTDFTLTIGSLQPEDFATYYCQQAHSFPLTFGGGTKVEIKR
B7: H4xH8992P (antibody, V domains shown)
VH: EVQLVESGGGLVQPGRSLRLSCVASGFALHDYAMHWVRQVPGKGLEWVSSISWNSGVIGYADSLKGRFTISRDNAKNSLYLQMNSLRAEDTALYYCAKGSGSYYVSWFDPWGQGTLVTVSS
VL: not shown
notes: as for B2
B8: H4xH8999P (antibody, V domains shown)
VH: QLQLQESGPGLVQPSETLSLTCTVSGDSISSTAYHWDWIRQPPGKGLEWIGTITYNGNTYFNPSLKSRVTISVDTSKNQFSLKLLSMTAAETAVFYCARHLGYNSDFFPFDFWGQGTLVTVSS
VL: not shown
notes: as for B2

These binders were tested against T3, full length human PD-1 on HEK293/hPD-1 cells (human, UniProt Q15116 25-288) (assay: FACS, 100 nM mAb).

Row | ratio of MFI HEK293/hPD-1 to HEK293 parental cells | Binder
1 | 71 | B1
2 | 91.9 | B2
3 | 82.2 | B3

What follows are binders tested against T3, full length human PD-1 on HEK293/hPD-1 … (assay: FACS dose response, HEK293/hPD-1 cells).

Row | EC50 | Max Geom. Mean MFI @ 100 nM | Binder
4 | 1.37 nM | 16400 MFI | B1
5 | 1.4 nM | 29200 MFI | B4
6 | 0.48 nM | 34100 MFI | B2
7 | 0.105 nM | 32800 MFI | B3

What follows are binders tested against T4, human PD-1 dimer (human PD-1-mFc or human PD-1-hFc) (human, UniProt Q15116 25-170) (assay: SPR, mAb captured, 25C;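 further: surface plasmon resonance on Biacore, PD-1 flowed over captured anti-PD-1 antibodies, rate constants from a 1:1 binding model fit, KD taken as kd/ka and t½ as ln2/(60·kd)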).
T4 construct: also called hPD-1-mFc; hPD1-hFc

Row | Kd | koff | kon | t½ | Binder
8 | 0.122 nM | 5.4e-05 s⁻¹ | 441000 M⁻¹ s⁻¹ | 214 min | B5
9 | 0.615 nM | 9.25e-05 s⁻¹ | 150000 M⁻¹ s⁻¹ | 125 min | B6

Each binder was assayed against T5, recombinant human PD-L1 expressed with a C-terminal mouse IgG2a Fc tag (human) (assay: SPR Biacore 3000: 500 nM mAb alone (no hPD-1.hFc) over captured hPD-L1.mFc surface, control).
T5 construct: also called hPD-L1-mFc; hPD-L1.mFc

Row | 500 nM of anti-PD-1 monoclonal antibody (RU) | Binder
10 | -2 RU | B4
11 | 1 RU | B2
12 | 3 RU | B7
13 | -3 RU | B3
14 | 1 RU | B8

Each binder was assayed against PD-1 chimera: extracellular domain of human PD-1 with trans-membrane and cytoplasmic domains of human CD300a, … (human, UniProt Q9UGN4 181-299, limits assumed) (assay: cell-based or functional assay).

Row | Concentration (M) of Antibody at 150% activation | Emax mean [%] @ 100 nM | Binder
15 | 4.09e-08 M | 170% | B1
16 | 1.79e-08 M | 180% | B4
17 | 1.1e-08 M | 166% | B2
18 |  | 178% | B7
19 | 1.55e-09 M | 193% | B3
20 |  | 217% | B8

Each binder was assayed against T6, recombinant human PD-1 dimer expressed with a C-terminal mouse IgG2a Fc tag (human) (assay: competition ELISA: 1.5 nM hPD-1-mFc to coated hPD-L1-hFc).
T6 construct: also called hPD-1-mFc

Row | % blocking at 200 nM antibody | IC50 | Binder
21 | 95% | 1.1 nM | B1
22 | 98% | 1.3 nM | B4
23 | 98% | 1 nM | B2
24 | 93% | 1.3 nM | B7
25 | 97% | 1.1 nM | B3
26 | 88% | 1.3 nM | B8

These binders were tested against T3, full length human PD-1 on HEK293/hPD-1 … (assay: FACS, 100 nM mAb, HEK293/hPD-1 cells;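 further: antibodies incubated with cells for 15-30 min on ice, bound antibody detected through a secondary F(ab′)2 by flow cytometry, with parental HEK293 cells tested in parallel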).

Row | MFI | Binder
27 | 19100 MFI | B1
28 | 8610 MFI | B4
29 | 9980 MFI | B2
30 | 17500 MFI | B7
31 | 9380 MFI | B3
32 | 28900 MFI | B8

Biological target: T1, recombinant cynomolgus monkey PD-1 …
Experiment: SPR, mAb captured, 37C

Row | Kd | koff | kon | t½ | Binder
33 | 10.5 nM | 0.00223 s⁻¹ | 213000 M⁻¹ s⁻¹ | 5 min | B5
34 | 88.3 nM | 0.00689 s⁻¹ | 78000 M⁻¹ s⁻¹ | 1.7 min | B6

Biological target: T2, monkey PD-1 with mFc
Experiment: SPR, captured mAb, 37 C;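 further: Real-time Biacore surface plasmon resonance biosensor readout of PD-1 reagent binding to purified anti-PD-1 monoclonal antibodies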

Row | 100 nM Monkey PD-1-mFc Bound (RU) | Kd | t1/2 | koff | kon | Binder
35 | 36 RU | 3.17 nM | 45 min |  |  | B4
36 | 46 RU | 6.06 nM | 23 min | 0.000502 s⁻¹ | 82900 M⁻¹ s⁻¹ | B2
37 | 86 RU | 4.38 nM | 8 min |  |  | B7
38 | 52 RU | 2.32 nM | 15 min | 0.000794 s⁻¹ | 342000 M⁻¹ s⁻¹ | B3
39 | 83 RU | 0.7 nM | 23 min |  |  | B8

What follows are binders tested against T7, recombinant human PD-1 expressed with a C-terminal myc-myc-hexahistidine tag (human) (assay: SPR, mAb captured, 37C;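 further: rate constants from fitting sensorgrams to a 1:1 binding model, KD derived as kd divided by ka and half-life as ln2/(60·kd)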).
T7 construct: monomeric; also called hPD-1-MMH; human PD-1-MMH

Row | Kd | koff | kon | t½ | Binder
40 | 7.48 nM | 0.0017 s⁻¹ | 227000 M⁻¹ s⁻¹ | 7 min | B5
41 | 104 nM | 0.00664 s⁻¹ | 64100 M⁻¹ s⁻¹ | 1.7 min | B6

Each binder was assayed against T8, dimeric biotinylated human PD-1 protein with a C-terminal human Fc tag (human, biotinylated (sites not given)) (assay: competition ELISA: 200 pM biot-hPD-1-hFc to coated hPD-L1-mFc).
T8 construct: also called biot-hPD-1-hFc

Row | % blocking at 50 nM antibody | IC50 | Binder
42 | 99% | 0.23 nM | B1
43 | 96% | 0.39 nM | B2
44 | 96% | 0.15 nM | B3

Each binder was assayed against T9, recombinant human PD-1 expressed with a C-terminal human IgG1 Fc tag (human) (assay: SPR Biacore 3000: 100 nM hPD-1.hFc + 500 nM mAb to captured hPD-L1.mFc;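 further: inhibition study with anti-PD-1 mAbs, SPR responses tracked in real time and read at the close of each step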).
T9 construct: also called hPD-1-hFc; hPD1-hFc

Row | binding of the mixture (RU) | % Blocking | Binder
45 | -1 RU |  | B4
46 | 0 RU | 100% | B2
47 | 2 RU |  | B7
48 | -3 RU | 102% | B3
49 | 0 RU | 100% | B8

Biological target: T1, recombinant cynomolgus monkey PD-1 …
Experiment: SPR, mAb captured, 25C;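 further: rates from fitting Biacore data for PD-1 binding to anti-PD-1 antibodies with a 1:1 model, KD computed as koff/kon and t½ as ln2/(60·koff)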

Row | Kd | koff | kon | t½ | Binder
50 | 3.86 nM | 0.000551 s⁻¹ | 143000 M⁻¹ s⁻¹ | 21 min | B5
51 | 22.4 nM | 0.00148 s⁻¹ | 65900 M⁻¹ s⁻¹ | 8 min | B6

Biological target: T2, monkey PD-1 with mFc
Experiment: SPR, captured mAb, 25 C;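 further: purified anti-PD-1 antibodies tested on Biacore 4000 or T200 instruments, rate constants obtained via 1:1 binding model fit, with KD as kd/ka and half-life as ln2/(60·kd)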

Row | 100 nM Monkey PD-1-mFc Bound (RU) | Kd | t1/2 | koff | kon | Binder
52 | 31 RU | 1.97 nM | 129 min |  |  | B4
53 | 52 RU | 1.91 nM | 104 min | 0.000112 s⁻¹ | 58400 M⁻¹ s⁻¹ | B2
54 | 122 RU | 1.24 nM | 46 min |  |  | B7
55 | 74 RU | 0.602 nM | 81 min | 0.000143 s⁻¹ | 238000 M⁻¹ s⁻¹ | B3
56 | 126 RU | 0.21 nM | 100 min |  |  | B8

What follows are binders tested against T6, recombinant human PD-1 dimer expressed … (assay: BLI Octet: 100 nM hPD-1-mFc + 500 nM mAb to captured hPD-L1-hFc).

Row | % Blocking | binding of the mixture (nm) | Binder
57 | 114% | -0.01 nm | B1

These binders were tested against T4, human PD-1 dimer (human PD-1-mFc or …) (assay: SPR, mAb captured, 37C).

Row | Kd | koff | kon | t½ | Binder
58 | 0.175 nM | 0.000115 s⁻¹ | 660000 M⁻¹ s⁻¹ | 100 min | B5
59 | 1.65 nM | 0.000264 s⁻¹ | 160000 M⁻¹ s⁻¹ | 44 min | B6
